From doi:10.1101/2025.04.30.25326597

Biological target: BORCS5 L128Vfs*86, C-terminally GFP-tagged (human) (UniProt Q969J3)
Experiment: co-IP; GFP-Trap agarose precipitation of C-terminally GFP-tagged BORCS5 constructs from lysates of transfected cells 24 h after transfection (10 mM Tris-Cl pH 7.5, 150 mM NaCl, 0.5 mM EDTA, 1% Triton X-100, 10% glycerol), 2 h at 4°C, five washes; endogenous SNAPIN and BORCS7 detected by immunoblotting; GFP alone as control

percent less co-immunoprecipitated than with WT: 30%
B1: BORCS7 (natural protein)
chain: MMATGTPESQARFGQSVKGLLTEKVTTCGTDVIALTKQVLKGSRSSELLGQAARNMVLQEDAILHSEDSLRKMAIITTHLQYQQEAIQKNVEQSSDLQDQLNHLLK
